The RNAGym collection of RNA variant scans (doi:10.7554/elife.80360)

B1: Hammerhead Ribozyme (parent)
chain: ACCGGAUGUGCUUUCCGGUCUGAUGAGUCCGUGAGGACGAAACAG

Variants of: B1
Test: self-cleavage, relative activity (ratio to wild type); higher = more cleavage; co-transcriptional

Variant	self-cleavage
G17C C30A	0.458
G17C C30U	0.545
G17C C30G	0.398
G17U A41C	0.365
G17U A41G	0.375
G17U A41U	0.327
G17C C20A	0.313
G17C C20G	0.279
G17C C20U	0.331
G17C U21G	0.352
G17C U21C	0.275
G17C U21A	0.306
C16U C29A	0.586
C16U C29U	0.988
C16U C29G	0.69
G17U G35A	0.642
G17U G35C	0.405
G17U G35U	0.454
G17U G31C	0.86
G17U G31U	0.834
G17U G31A	0.918

Variant	self-cleavage
G17U A37U	0.586
G17U A37G	0.568
G17U A37C	0.688
G17U C30U	0.755
G17U C30A	0.583
G17U C30G	0.59
G17C A41G	0.388
G17C A41C	0.272
G17C A41U	0.318
G17A C20G	0.367
G17A C20U	0.442
G17A C20A	0.327
G17A A41G	0.332
G17A A41U	0.347
G17A A41C	0.259
C16U G22U	0.327
C16U G22C	0.318
C16U G22A	0.386
C16U G27U	0.551
C16U G27A	0.858
C16U G27C	0.783

Variant	self-cleavage
G17U U19C	0.397
G17U U19A	0.361
G17U U19G	0.257
G17A	0.768
G17C	0.575
G17U	0.855
G17C G33C	0.458
G17C G33U	0.623
G17C G33A	0.564
G17U U28C	0.495
G17U U28G	0.513
G17U U28A	0.58
G17A U19A	0.386
G17A U19G	0.332
G17A U19C	0.23
G18A A41U	0.358
G18A A41G	0.37
G18A A41C	0.328
G17C U24A	0.493
G17C U24C	0.457
G17C U24G	0.462

Variant	self-cleavage
G17C A26C	0.355
G17C A26U	0.326
G17C A26G	0.353
C16U G35U	0.735
C16U G35A	0.911
C16U G35C	0.434
G17C G27A	0.446
G17C G27U	0.349
G17C G27C	0.354
G17C G25C	0.403
G17C G25A	0.362
G17C G25U	0.296
G17A G33A	0.794
G17A G33C	0.713
G17A G33U	0.751
G17U C43A	0.356
G17U C43G	0.291
G17U C43U	0.379
G17C U32C	0.444
G17C U32A	0.497
